# Measured values as given in article PMC11480844 (2024).
# T1: peptide on HLA-B*07:02 (human)
# T1 peptide: VPSVWRSSL
# Biological target: T1, peptide on HLA-B*07:02
# Assay: activation reporter or marker
row,Binder,binding result
1,"R26 (TCR, V domains shown) Valpha: GQQVMQIPQYQHVQEGEDFTTYCNSSTTLSNIQWYKQRPGGHPVFLIQLVKSGEVKKQKRLTFQFGEAKKNSSLHITATQTTDVGTYFCAGQDYAGKSTFGDGTTLTVKP Vbeta: DTGVSQNPRHKITKRGQNVTFRCDPISEHNRLYWYRQTLGQGPEFLTYFQNEAQLEKSRLLSDRFSAERPKGSFSTLEIQRTEQGDSAMYLCASSSGGRFYGYTFGSGTRLTVV",recognises
2,"R28 (TCR, V domains shown) Valpha: AQTVTQSQPEMSVQEAETVTLSCTYDTSESDYYLFWYKQPPSRQMILVIRQEAYKQQNATENRFSVNFQKAAKSFSLKISDSQLGDAAMYFCAYRSAGNQGAQKLVFGQGTRLTINP Vbeta: ETGVTQSPTHLIKTRGQQVTLRCSSQSGHNTVSWYQQALGQGPQFIFQYYREEENGRGNFPPRFSGLQFPNYSSELNVNALELDDSALYLCASSLGRGTYEQYFGPGTRLTVT",recognises
3,"R24 (TCR, V domains shown) Valpha: GQQVMQIPQYQHVQEGEDFTTYCNSSTTLSNIQWYKQRPGGHPVFLIQLVKSGEVKKQKRLTFQFGEAKKNSSLHITATQTTDVGTYFCAVHMNRDDKIIFGKGTRLHILP Vbeta: EAQVTQNPRYLITVTGKKLTVTCSQNMNHEYMSWYRQDPGLGLRQIYYSMNVEVTDKGDVPEGYKVSRKEKRNFPLILESPSPNQTSLYFCASSLTSFYEQYFGPGTRLTVT",recognises
4,"R23 (TCR, V domains shown) Valpha: KQEVTQIPAALSVPEGENLVLNCSFTDSAIYNLQWFRQDPGKGLTSLLLIQSSQREQTSGRLNASLDKSSGRSTLYIAASQPGDSATYLCAVRPQGGSEKLVFGKGTKLTVNP Vbeta: EAQVTQNPRYLITVTGKKLTVTCSQNMNHEYMSWYRQDPGLGLRQIYYSMNVEVTDKGDVPEGYKVSRKEKRNFPLILESPSPNQTSLYFCASTVGGTQYFGPGTRLTVL",recognises
5,"R21 (TCR, V domains shown) Valpha: AQKVTQAQTEISVVEKEDVTLDCVYETRDTTYYLFWYKQPPSGELVFLIRRNSFDEQNEISGRYSWNFQKSTSSFNFTITASQVVDSAVYFCALGTYGNNRLAFGKGNQVVVIP Vbeta: NAGVTQTPKFRILKIGQSMTLQCAQDMNHNYMYWYRQDPGMGLKLIYYSVGAGITDKGEVPNGYNVSRSTTEDFPLRLELAAPSQTSVYFCASTKGGPSSYEQYFGPGTRLTVT",recognises
6,"R25 (TCR, V domains shown) Valpha: GENVEQHPSTLSVQEGDSAVIKCTYSDSASNYFPWYKQELGKGPQLIIDIRSNVGEKKDQRIAVTLNKTAKHFSLHITETQPEDSAVYFCAAQKTSYDKVIFGPGTSLSVIP Vbeta: EAQVTQNPRYLITVTGKKLTVTCSQNMNHEYMSWYRQDPGLGLRQIYYSMNVEVTDKGDVPEGYKVSRKEKRNFPLILESPSPNQTSLYFCASSTPGSLNEQFFGPGTRLTVL",recognises
